Results reported in patent publication US20160074509A1.

Target: OVA323-339 in the context of MHC class II (I-A^b) (mouse; chicken) (UniProt P14434)
Test: cell-based or functional assay

proliferation of CFSE-labeled OT-II cells transferred into the footpad one week after immunization with OVA-KFE8D nanofibers (shift in CFSE intensity) (% of transferred cells): 60 | proliferation of adoptively transferred CFSE-labeled OT-II cells in mice immunized with OVA-Q11 or OVA in CFA (shift in CFSE intensity) (% of transferred cells): 95
Sequence: T cell receptor of OT-II transgenic CD4+ T cells (TCR)
